Laboratory results reported in paper PMC7382501 (Nature Communications, 2020).

Biological target: the molecule itself
Assay: crystal structure

B1: FasRΔ33, truncated FasR lacking the first 33 amino acids (domain or fragment)
chain: RLPRDERRGQLLVVASDVFVDRGYHAAGMDEIADRAGVSKPVLYQHFSSKLELYLAVLHRHVENLVSGVHQALSTTTDNRQRLHVAVQAFFDFIEHDSQGYRLIFENDFVTEPEVAAQVRVATESCIDAVFALISADSGLDPHRARMIAVGLVGMSVDCARYWLDADKPISKSDAVEGTVQFAWGGLSHVPLTRS
For B1, the “stoichiometry N” value was 2.
